In one data set the test system is tumors. The data set is described as follows: Tumor apoptosis markers and CD95 staining after intratumoral delivery. In kind it is in vivo, mice. As to the method: (FIG. 16A) MDA-MB-231, A549, or MEL888 (xenograft model) cells were injected into athymic nude mice; M1 or 4195 tumors (TNBC PDX models) were propagated in SCID mice; and E0771, LLC1, or B16F10 cells (syngeneic models) were injected into C57BL/6 mice. Once tumors reached ˜100 mm^3, ELANE (11.6 μg), or PMSF-ELANE (11.6 μg) were delivered intratumorally once/day for 5 days. Tumors were isolated on day 6, formalin fixed, and examined by immunohistochemistry or immunofluorescence staining for TUNEL, cleaved-PARP (cPARP), and cleaved CASP3 (cCASP3). Images were taken under 40×. (FIG. 16B) Tumor sections were stained with N-terminal (N-CD95) and C-terminal (C-CD95) specific anti-CD95 antibodies, followed by secondary antibody staining (Alex fluor 488 and 594 for C-CD95 and N-CD95 respectively). Fluorescence intensity quantification was performed on 3-4 areas/mouse.

For data set [1], the system named is Human or murine cancer cells. Kind of data set: Cancer cell viability and apoptosis (Calcein AM, Caspase 3/7, Annexin V). It is filed as cell-based. To be noted: 50 nM; 24 hrs viability, 6 hrs apoptosis. The procedure: (§1) Human PMN'S broadly and selectively kill cancer cells. Human peripheral blood neutrophils (PMN) were isolated from healthy donors and incubated in serum-free DMEM to collect their secreted factors (PMN-media). (A-B) Human or murine cancer cells (A) or healthy cells (b) were incubated with PMN media or control serum-free DMEM (Ctrl media) for 24 hours. Cell viability was assessed by Calcein AM staining. (C) Human or murine cancer cells were treated with PMN media or Ctrl media for 6 hours. Caspase 3/7 activity was examined by a luminescence activity assay, while cell surface Annexin V staining was assessed by flow cytometry. […] (FIG. 1).
(§2) (FIG. 6A) Cancer cells or healthy cells were treated with 50 nM purified native ELANE or control DMEM media (Ctrl) media for 24 hrs, and cell viability was assessed by Calcein AM staining. (FIG. 6B) Cancer cells were treated with 50 nM ELANE or Ctrl media for 6 hrs, and apoptosis was assessed by Caspase 3/7 luminesce activity assay or cell surface Annexin V staining by flow cytometry. *, p<0.05, Student's t-test.

The next data set deals with healthy cells. The data set is described as follows: Healthy cell viability, Calcein AM. It is filed as cell-based. Particulars: 50 nM, 24 hrs. As to the method: as §1, §2
Another data set concerns Healthy non-cancer cells. Kind of data set: Killing program signaling in non-cancer cells. In kind it is cell-based, Human and mouse. Particulars: 50 nM. As to the method: (FIG. 11A) Healthy non-cancer cells were treated with ELANE (50 nM) for 4 hrs, and phosphorylated and total ERK, NFKB, and JNK were quantified by immunoblotting. Immunoblots for BMDMs are shown as an example. (FIG. 11B) Cells were treated with various doses of ELANE for 1 hr and mitochondrial ROS was measured by flow cytometry using CM-H2DCFDA dye. (FIG. 11C) Cells were treated with ELANE (50 nM) for 8 hrs, and full length and cleaved CASP3 (c-CASP3) and cleaved PARP (c-PARP) were quantified by immnoblotting. Immunoblots for BMDMs are shown as an example.
The ELANE-induced killing program is not observed in non-cancer cells. Human and mouse non-cancer cells were treated with ELANE and signaling pathways associated with cancer cell death were assessed. Cells were treated with ELANE (50 nM) for 4 hrs, and phosphorylated and total ERK, NFKB, and JNK were quantified by western blotting. Cells were treated with various doses of ELANE for 1 hr and mitochondrial ROS was measured by flow cytometry using CM-H2DCFDA dye. Cells were treated with ELANE (50 nM) for 8 hrs, and full length and cleaved CASP3 and PARP were quantified by western blotting.

In a further data set the test system is E0771 cancer cells. The data set is described as follows: Abscopal effect, bilateral E0771 tumors. In kind it is in vivo, C57BL/6 mice. The procedure:
(FIG. 19A) E0771 cancer cells were injected into left (0.5 million cells) and right (0.4 million cells) mammary fat pad of C57BL/6 mice. Once tumors on the left side reached ˜100 mm^3, ELANE (11.6 μg) or PMSF-inactivated ELANE (PMSF-ELANE) were injected intra-tumorally into the left tumor once/day for 5 days. n=10 mice/group. No action was performed on the right side of the tumor (abscopal side). Tumor volume on both sides were measured by calipers. (FIG. 19B) To eliminate the possibility that the abscopal effect was due to spillover of ELANE from the left to the right tumor, E0771 cancer cells were injected only into the left mammary fat pad of C57BL/6 mice, and mice were treated daily with ELANE (11.6 μg) or PMSF-ELANE into the right mammary fat pad. Tumor volume was measured by calipers.

The test system of data set [2] is E0771, B16F10, or LLC1 cancer cells. The data set is described as follows: Tumoral immune cell analysis by flow cytometry. It is filed as in vivo, C57BL/6 mice. Particulars: 11.6 μg intratumorally once/day for 5 days, day 6. The procedure:
E0771, B16F10, or LLC1 cancer cells were injected into C57BL/6 mice. Once tumors reached ˜100 mm^3, ELANE (11.6 μg) or PMSF-ELANE (11.6 μg) were delivered intratumorally once/day for 5 days. Tumors were isolated on day 6 and digested for immune cell analysis by flow cytometry. CD45+ cells are the total immune cells; macrophages (Mac) are defined as CD45+CD11b+CD11c^lowMHCII^low, neutrophils (Neu) are defined as CD45+CD11b+Ly6G+, dendritic cells (DC) are defined as CD45+CD11b+CD11c^highMHCII^high, B cells (b) are defined as CD45+B220+, NK cells (NK) are defined as CD45+NK1.1+CD16+, CD4+ T cells (CD4T) are defined as CD3+CD4+CD8−, CD8+ T cells (CD8T) are defined as CD3+CD8+CD4−, CD8 effector T cells (CD8Teff) are defined as CD3+CD8+CD4−CD62L−CD44+. *, p<0.05, Student's t-test. (FIG. 17)
For orientation: In flow cytometry, cells or beads pass a laser one at a time.

The nature of data set [3]: Side effects in healthy non-tumor-bearing mice. It is filed as in vivo, C57BL/6 mice. To be noted: mammary fat pad, once a day for 5 consecutive days. The procedure:
Human serum albumin (HSA; 11.6 μg)) or ELANE (11.6 μg) was injected into the mammary fat pad of healthy non-tumor-bearing C57BL/6 mice once a day for 5 consecutive days, and side effects were monitored. (a) Immunohistochemistry staining for apoptosis markers (TUNEL, cleaved CASP3 (c-CASP3), cleaved PARP (c-PARP)) 2 days after the final injection. (b) Delta body weight. (c) Spleen weight. (c) Blood ALT activity levels (a marker of liver function).
4 μM human albumin (Ctrl) or 4 μM ELANE was injected into the mammary fat pad of healthy non-tumor-bearing C57BL/6 mice once a day for 5 consecutive days, and side effects were monitored. Body weight, spleen weight, and blood ALT activity levels (a marker of liver function). Immunohistochemistry staining for apoptosis markers (cleaved CASP3 (c-CASP3), cleaved PARP (c-PARP)) 2 days after the final injection. Quantification of CD8+ effector cytotoxic T-cells (defined as CD3^+CD8^+CD62L^LOCD44^HI) in the blood 2 days after the final injection.

“Also recorded” adds a separate entry of the source.

B1: neutrophil elastase (protein, listed as Homo sapiens)
chain: MTLGRRLACLFLACVLPALLLGGTALASEIVGGRRARPHAWPFMVSLQLRGGHFCGATLIAPNFVMSAAHCVANVNVRAVRVVLGAHNLSRREPTRQVFAVQRIFENGYDPVNLLNDIVILQLNGSATINANVQVAQLPAQGRRLGNGVQCLAMGWGLLGRNRGIASVLQELNVTVVTSLCRRSNVCTLVRGRQAGVCFGDSGSPLVCNGLIHGIASFVRGGCASGLYPDAFAPVAQFVNWIDSIIQRSEDNPCPHPRDPDPASRTH
notes: purified native ELANE
With B1, the “C-CD95 levels in tumors” value with tumors (11.6 μg intratumorally once/day for 5 days, day 6) was “attenuates C-CD95 levels in vivo”. Further, in the data set on tumors (intratumoral delivery, mouse cancer models), the apoptosis in tumors result is given as “induces cancer cell apoptosis; also recorded: induced widespread apoptosis”. Moreover, the “cancer cell killing and apoptosis” value in data set [1] is “selectively kill cancer cells by inducing apoptosis”. In the data set with healthy cells, the healthy cell viability entry is reported as “does not kill normal healthy cells”. Moreover, the “killing program in healthy non-cancer cells” value with Healthy non-cancer cells is reported as “does not induce a robust killing program in healthy non-cancer cells”. For the same molecule, the “tumor growth after injection into contralateral non-tumor bearing mammary fat pad” value in the data set on E0771 cancer cells (11.6 μg daily) is reported as “does not lower tumor growth”. Also, in the data set with E0771 cancer cells (11.6 μg into left tumor once/day for 5 days), the abscopal effect entry is “induces an abscopal effect”. Also, in data set [2], the tumoral immune cells result is reported as “increases tumoral immune cells”. In data set [3], the “side effects (body weight, spleen weight, blood ALT, apoptosis markers)” value is “does not produce evident side-effects”.

The values are drawn from patent publication US12564623B2, “Methods and compositions for treating cancer” (The University of Chicago, priority 2017, dated 2026).
